Laboratory results reported in patent US20200157212A1 (Pfizer, published 2020).

T1: Human ROBO2 Ig1-Ig2-His (human, UniProt Q9HCK4 31-220)
T1 construct: the His tag is named only in the SPR paragraphs; the Octet and ELISA paragraphs print 'ROBO2 Ig1-Ig2' without a tag; also called ROBO2 Ig1-2; Human ROBO2 Ig 1,2
T1 sequence: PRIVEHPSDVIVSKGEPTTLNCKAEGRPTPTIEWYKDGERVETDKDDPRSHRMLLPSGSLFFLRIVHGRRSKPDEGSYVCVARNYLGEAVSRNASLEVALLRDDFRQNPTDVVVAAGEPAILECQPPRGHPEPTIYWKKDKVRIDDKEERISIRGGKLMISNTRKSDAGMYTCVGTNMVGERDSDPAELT

T2: Terbium (Tb) labeled-SNAP tagged ROBO2 expressed on HEK293 cells (Homo sapiens (Human), UniProt Q9HCK4 22-1378, terbium label on the SNAP tag)
T2 construct: also called Tb-labeled ROBO2 cells; ROBO2 expressing cells; not shown: SNAP tag
T2 sequence: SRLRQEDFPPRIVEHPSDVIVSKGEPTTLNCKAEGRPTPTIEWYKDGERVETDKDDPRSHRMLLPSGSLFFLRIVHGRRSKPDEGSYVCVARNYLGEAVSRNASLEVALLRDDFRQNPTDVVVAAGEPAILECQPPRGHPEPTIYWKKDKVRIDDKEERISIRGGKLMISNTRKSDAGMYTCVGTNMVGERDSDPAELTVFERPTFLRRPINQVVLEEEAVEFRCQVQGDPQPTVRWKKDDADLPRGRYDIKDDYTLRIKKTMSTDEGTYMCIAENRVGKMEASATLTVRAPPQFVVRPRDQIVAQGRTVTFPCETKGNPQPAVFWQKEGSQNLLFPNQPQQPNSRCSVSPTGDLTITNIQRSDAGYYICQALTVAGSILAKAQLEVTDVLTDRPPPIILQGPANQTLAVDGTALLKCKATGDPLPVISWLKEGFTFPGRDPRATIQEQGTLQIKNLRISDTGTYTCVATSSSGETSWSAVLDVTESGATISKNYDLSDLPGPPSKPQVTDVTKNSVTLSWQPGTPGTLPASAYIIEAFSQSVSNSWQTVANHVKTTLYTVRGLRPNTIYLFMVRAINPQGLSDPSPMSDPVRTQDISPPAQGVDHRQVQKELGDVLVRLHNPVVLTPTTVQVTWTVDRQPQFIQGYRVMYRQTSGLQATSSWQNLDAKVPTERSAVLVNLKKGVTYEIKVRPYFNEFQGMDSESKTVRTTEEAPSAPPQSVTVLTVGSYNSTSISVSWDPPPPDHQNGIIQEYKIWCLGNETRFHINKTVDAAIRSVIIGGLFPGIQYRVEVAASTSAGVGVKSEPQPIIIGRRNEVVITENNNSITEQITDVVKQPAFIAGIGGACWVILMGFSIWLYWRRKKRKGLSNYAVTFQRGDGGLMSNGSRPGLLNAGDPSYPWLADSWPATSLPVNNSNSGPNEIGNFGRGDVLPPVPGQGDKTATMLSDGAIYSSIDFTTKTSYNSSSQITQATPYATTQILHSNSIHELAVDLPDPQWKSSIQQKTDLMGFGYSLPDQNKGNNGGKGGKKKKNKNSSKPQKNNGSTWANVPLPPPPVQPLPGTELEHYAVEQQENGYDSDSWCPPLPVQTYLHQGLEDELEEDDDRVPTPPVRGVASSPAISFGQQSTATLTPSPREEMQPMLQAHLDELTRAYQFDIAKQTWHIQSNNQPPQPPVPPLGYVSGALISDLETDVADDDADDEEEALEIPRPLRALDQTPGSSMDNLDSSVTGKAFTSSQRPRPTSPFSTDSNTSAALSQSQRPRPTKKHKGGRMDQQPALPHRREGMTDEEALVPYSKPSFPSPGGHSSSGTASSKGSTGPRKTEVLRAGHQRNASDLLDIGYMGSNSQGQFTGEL

B1: Abcs35 (antibody, human IgG1, kappa)
heavy: EVQLVQSGAEVKKPGASVKVSCKASGYTFTGYYMHWVRQAPGQGLEWMGWINPKNGDTEFPQKFQGRVTMTRDTSITTAYMDLSRLRSDDTAVYYCARESGDDAFDIWGQGTMVTVSSASTKGPSVFPLAPSSKSTSGGTAALGCLVKDYFPEPVTVSWNSGALTSGVHTFPAVLQSSGLYSLSSVVTVPSSSLGTQTYICNVNHKPSNTKVDKKVEPKSCDKTHTCPPCPAPEAAGAPSVFLFPPKPKDTLMISRTPEVTCVVVDVSHEDPEVKFNWYVDGVEVHNAKTKPREEQYNSTYRVVSVLTVLHQDWLNGKEYKCKVSNKALPAPIEKTISKAKGQPREPQVYTLPPSREEMTKNQVSLTCLVKGFYPSDIAVEWESNGQPENNYKTTPPVLDSDGSFFLYSKLTVDKSRWQQGNVFSCSVMHEALHNHYTQKSLSLSPGK
light: DIVMTQSPSSLSASVGDRVTITCRASQSISSYLNWYQQKPGKAPKLLIYAASSLQSGVPSRFSGSGSGTDFTLTISSLQPEDFATYYCQQSVGLFFGGGTKVEIKRTVAAPSVFIFPPSDEQLKSGTASVVCLLNNFYPREAKVQWKVDNALQSGNSQESVTEQDSKDSTYSLSSTLTLSKADYEKHKVYACEVTHQGLSSPVTKSFNRGEC
notes: fully human IgG1; VH of Ab96 with VL of Ab123
B2: Abcs35-J (antibody, human IgG1, kappa)
heavy: EVQLVQSGAEVKKPGASVKVSCKASGYTFTGYYMHWVRQAPGQGLEWMGWINPKNGDTEFPQKFQGRVTMTRDTSITTAYMELSRLRSDDTAVYYCARESGDDAFDIWGQGTMVTVSSASTKGPSVFPLAPSSKSTSGGTAALGCLVKDYFPEPVTVSWNSGALTSGVHTFPAVLQSSGLYSLSSVVTVPSSSLGTQTYICNVNHKPSNTKVDKKVEPKSCDKTHTCPPCPAPEAAGAPSVFLFPPKPKDTLMISRTPEVTCVVVDVSHEDPEVKFNWYVDGVEVHNAKTKPREEQYNSTYRVVSVLTVLHQDWLNGKEYKCKVSNKALPAPIEKTISKAKGQPREPQVYTLPPSREEMTKNQVSLTCLVKGFYPSDIAVEWESNGQPENNYKTTPPVLDSDGSFFLYSKLTVDKSRWQQGNVFSCSVMHEALHNHYTQKSLSLSPGK
light: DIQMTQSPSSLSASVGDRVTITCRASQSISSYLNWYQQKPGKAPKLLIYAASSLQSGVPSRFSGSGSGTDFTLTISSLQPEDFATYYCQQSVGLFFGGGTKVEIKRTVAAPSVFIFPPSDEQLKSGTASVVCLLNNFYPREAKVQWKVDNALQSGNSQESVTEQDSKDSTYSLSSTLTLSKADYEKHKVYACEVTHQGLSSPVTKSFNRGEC
notes: germlined variant of Abcs35; also called ABCS-J

Legend:
Human ROBO2 Ig1-Ig2-His = target: T1, Human ROBO2 Ig1-Ig2-His; test: SPR, antibody on CM5 chip, ROBO2 Ig1-Ig2-His
Procedure: Based upon several criteria, Abcs25 and Abcs35 were selected for further characterization. Using flow cytometry, improvement in the binding EC₅₀ to human ROBO2 relative to the parental 93H2 was evaluated. Starting at 6.7 nM, 11-point, 3-fold dilution series were made for each antibody and used to stain HEK293 overexpressing human ROBO2 as described above for the ROBO2 fold selectivity (Example 2). […] In addition to measuring improved binding to human ROBO2, it was important to ensure that high affinity binding to both cynomolgus monkey ROBO2 and rat ROBO2 was maintained. Using HEK293 cells overexpressing either cynomolgus monkey ROBO2 or rat ROBO2, the relative dose-dependent binding of 93H2, Abcs25 and Abcs35 was evaluated as described above. High affinity binding to both cynomolgus monkey and rat ROBO2 was maintained in Abcs25 and Abcs35 (Table 4). […] Briefly, Abcs35 was immobilized to 300 resonance units (RU) on a CM5 chip. Association of ROBO2 Ig1-Ig2-His (ROBO2) was measured over 5 minutes and dissociation was followed for a period of 10 minutes.
Affinity was measured by standard SPR methods as described in Example 3. Briefly, antibodies were immobilized to a specific measure of resonance units (RU) on a CM5 chip. Association of ROBO2 Ig1-Ig2-His (ROBO2) and dissociation will be followed for a period of time.

[1] = target: T2, Terbium (Tb) labeled-SNAP tagged ROBO2 …; test: HTRF competition, competitor d2-SLIT2-N, ROBO2 HEK293 cells
Procedure: A ROBO2-SLIT2-N homogenous time resolved fluorescence (HTRF) assay was used to identify antibodies that were capable of blocking SLIT2-N binding to ROBO2. In this assay, terbium (Tb) labeled-SNAP tagged ROBO2 expressing HEK293 cells were incubated with 5 nM d2-labeled SLIT-2N in the presence of 1 nM anti-ROBO2 antibodies for 1 hour. After incubation, fluorescence at 665 nm and 620 nm was measured on an Envision multilabel plate reader. […] Maximal signal was defined as the HTRF ratio of Tb-labeled ROBO2 cells with d2-labeled SLIT2-N in the absence of antibody, the minimum signal was defined as the HTRF ratio of Tb-labeled ROBO2 expressing HEK293 cells only. One nanomolar (nM) parental antibody, 93H2, was unable to block the HTRF assay, therefore this concentration was selected to identify clones with a higher affinity than 93H2 (Table 2, HTRF Ratio column). […] Antibodies derived from chain (Abcs series) or CDR shuffling (CTIR-2 series) were evaluated in 11-point, 5-fold dilution series with a top concentration of 1500 nM (Table 2 HTRF IC₅₀).
Neutralization of SLIT2-N binding to ROBO2 was assessed ROBO2:SLIT2-N homogenous time resolved fluorescence (HTRF) assay as described in Example 2. Briefly the HTRF assay was performed as follows: terbium (Tb) labeled-SNAP tagged ROBO2 expressing HEK293 cells were incubated with d2-labeled SLIT-2N in the presence of anti-ROBO2 antibodies for 1 hour. After incubation, fluorescence at 665 nm and 620 nm was measured on an Envision multi-label plate reader. […] Maximal signal was defined as the HTRF ratio of Tb-labeled ROBO2 cells with d2-labeled SLIT2-N in the absence of antibody, the minimum signal was defined as the HTRF ratio of Tb-labeled ROBO2 expressing HEK293 cells only.

Binder	Kd (Human ROBO2 Ig1-Ig2-His) [pM]	IC50 [1] [pM]
B1	85.7	76.1
B2	93.9	74.4
